Measurements published in patent US20240270821A1, “GIP/GLP1/GCG TRI-RECEPTOR AGONISTS AND USES THEREOF” (priority 2023, published 2024).
Starred links: 1 amine or outer side, 2 acyl side, 3 side chain; linkers in the order of their positions; H or OH if unused. Non-standard residues stand in square brackets, D forms with d. Groups on a side chain read outwards from the residue. No end group written: not given here. *: point of attachment. C20 diacid = O=C(O)CCCCCCCCCCCCCCCCCCC(=O)*; C18 diacid = O=C(O)CCCCCCCCCCCCCCCCC(=O)*; αMePhe(2-F) = C[C@](N)(Cc1ccccc1F)C(=O)O; γGlu = O=C(O)[C@H](CCC(=O)[*:2])N[*:1]; αMe4Pal = C[C@](N)(Cc1ccncc1)C(=O)O; αMeY = C[C@](N)(Cc1ccc(O)cc1)C(=O)O; 4Pal = N[C@@H](Cc1ccncc1)C(=O)O; αMeL = CC(C)C[C@](C)(N)C(=O)O; Orn = NCCC[C@H](N)C(=O)O; AEEA = NCCOCCOCC(=O)O; Aib = CC(C)(N)C(=O)O

What was measured:
[1] = tested on: Intestinal organoid from Göttingen minipig jejunum tissue, 2D monolayer; test: Cell based in vitro permeability (Papp) assay; type: in vitro ADME
Description: Intestinal organoid from Göttingen minipig jejunum tissue and its 2D monolayer are generated using the protocol previously described ([…]-Thiele, […].; Wells, J. M., Optimized procedures for generating an enhanced, near physiological 2D culture system from porcine intestinal organoids. […] After 7 days of culture, organoids are dissociated into single cells by TrypLE (GIbco), and the single cell suspension is added in 24-well transparent transwell inserts (0.3 cm^2, Falcon, BD). […] Samples from the basal compartment are collected at 20 min in the presence of C10. Peptide concentrations in the apical and basal compartments are measured by LC/MS, and the apparent permeability coefficient (Papp) is calculated as previously described (Twarog, C.; Liu, K.; O'Brien, P. J.; Dawson, […] head-to-head Caco-2 assay comparison of the mechanisms of action of the intestinal permeation enhancers: SNAC and sodium caprate (C10).

[2] = biological target: T1, human GIP receptor (human) (UniProt P48546); test: cell-based or functional assay
T1 sequence (looked up): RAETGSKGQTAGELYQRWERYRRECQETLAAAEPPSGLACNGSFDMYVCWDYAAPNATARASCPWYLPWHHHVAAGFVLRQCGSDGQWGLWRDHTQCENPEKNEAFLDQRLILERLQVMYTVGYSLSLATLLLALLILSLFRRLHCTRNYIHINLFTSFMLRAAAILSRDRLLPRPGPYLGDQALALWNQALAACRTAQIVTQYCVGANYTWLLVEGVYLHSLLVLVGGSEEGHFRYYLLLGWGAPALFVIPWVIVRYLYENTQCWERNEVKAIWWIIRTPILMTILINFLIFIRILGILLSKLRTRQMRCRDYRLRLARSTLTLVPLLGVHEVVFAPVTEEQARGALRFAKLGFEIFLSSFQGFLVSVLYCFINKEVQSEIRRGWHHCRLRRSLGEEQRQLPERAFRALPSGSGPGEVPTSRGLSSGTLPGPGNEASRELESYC

hGLP-1R = hGLP-1R (Homo sapiens, UniProt P43220); test: cell-based or functional assay
[3] = biological target: human GLP1-R (SNAP-GLP-1R expressed in HEK293 cells) (human) (UniProt P43220); test: cell-based or functional assay
[4] = biological target: human glucagon receptor (human) (UniProt P47871); test: cell-based or functional assay
Chain of human glucagon receptor (human) (P47871 26-477): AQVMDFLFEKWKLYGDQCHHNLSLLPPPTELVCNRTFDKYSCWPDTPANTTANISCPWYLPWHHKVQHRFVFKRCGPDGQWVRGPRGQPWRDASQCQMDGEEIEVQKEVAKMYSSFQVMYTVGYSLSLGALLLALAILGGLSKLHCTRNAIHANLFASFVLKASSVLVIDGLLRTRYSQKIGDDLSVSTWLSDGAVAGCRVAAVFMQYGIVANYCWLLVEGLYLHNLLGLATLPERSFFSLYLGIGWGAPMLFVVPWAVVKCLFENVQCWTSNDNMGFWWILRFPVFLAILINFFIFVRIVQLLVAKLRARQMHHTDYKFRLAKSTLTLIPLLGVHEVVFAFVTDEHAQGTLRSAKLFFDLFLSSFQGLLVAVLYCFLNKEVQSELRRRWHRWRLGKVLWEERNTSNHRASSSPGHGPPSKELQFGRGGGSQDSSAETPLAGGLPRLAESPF

Chain of human GLP1-R (SNAP-GLP-1R expressed in HEK293 cells) (human) (P43220 24-463): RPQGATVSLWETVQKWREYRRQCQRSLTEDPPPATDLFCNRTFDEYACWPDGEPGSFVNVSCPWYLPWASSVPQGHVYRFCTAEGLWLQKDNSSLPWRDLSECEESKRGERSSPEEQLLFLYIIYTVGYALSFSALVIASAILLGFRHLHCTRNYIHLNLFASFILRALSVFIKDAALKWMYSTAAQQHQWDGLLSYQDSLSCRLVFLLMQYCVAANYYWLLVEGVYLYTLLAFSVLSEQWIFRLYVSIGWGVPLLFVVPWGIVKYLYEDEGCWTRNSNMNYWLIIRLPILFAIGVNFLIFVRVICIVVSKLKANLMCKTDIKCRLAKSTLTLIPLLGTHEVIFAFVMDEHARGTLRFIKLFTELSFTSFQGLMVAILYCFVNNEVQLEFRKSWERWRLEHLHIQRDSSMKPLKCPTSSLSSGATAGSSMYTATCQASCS
Chain of hGLP-1R (P43220 24-463): as above

Molecule	Relative Papp (Compared to internal standard) [1]	Relative cAMP EC50 [2]	cAMP Rel EC50 (in the presence of 1% HSA) [2]	Relative cAMP EC50 (hGLP-1R)	cAMP Rel EC50 (in the presence of 1% HSA) (hGLP-1R)	GLP1R Internalization EC50 [3]	Internalization % TOP [3]	Relative cAMP EC50 [4]	cAMP Rel EC50 (in the presence of 1% HSA) [4]
CC[C@H](C)[C@H](NC(=O)[C@H](Cc1ccccc1)NC(=O)[C@H](C)NC(=O)C(C)(C)NC(=O)[C@H](CCC(N)=O)NC(=O)[C@H](C)NC(=O)[C@H](CCCCNC(=O)COCCOCCNC(=O)CC[C@H](NC(=O)CCCCCCCCCCCCCCCCC(=O)O)C(=O)O)NC(=O)[C@H](CCCCN)NC(=O)[C@H](CC(=O)O)NC(=O)[C@H](CC(C)C)NC(=O)[C@](C)(CC(C)C)NC(=O)[C@H](CCCN)NC(=O)[C@H](CO)NC(=O)[C@H](Cc1ccccc1)NC(=O)[C@H](CC(=O)O)NC(=O)[C@H](CO)NC(=O)[C@@H](NC(=O)[C@H](Cc1ccccc1)NC(=O)[C@@H](NC(=O)CNC(=O)[C@H](CCC(N)=O)NC(=O)C(C)(C)NC(=O)[C@@H](N)Cc1ccc(O)cc1)[C@@H](C)O)[C@@H](C)O)C(=O)N[C@@H](CCC(=O)O)C(=O)N[C@@H](Cc1ccc(O)cc1)C(=O)N[C@@H](CC(C)C)C(=O)N[C@@H](CC(C)C)C(=O)N[C@@H](CCC(=O)O)C(=O)N[C@H](C)C(=O)NCC(=O)N1CCC[C@H]1C(=O)N[C@@H](CO)C(=O)N[C@@H](CO)C(=O)NCC(=O)N[C@@H](C)C(=O)N1CCC[C@H]1C(=O)N1CCC[C@H]1C(=O)N1CCC[C@H]1C(=O)N[C@@H](CO)C(=O)NCC(=O)N[C@H](C(=O)O)[C@@H](C)O [Example 213]	0.26								
CC[C@H](C)[C@H](NC(=O)[C@H](Cc1ccccc1)NC(=O)[C@H](C)NC(=O)C(C)(C)NC(=O)[C@H](CCC(N)=O)NC(=O)[C@H](C)NC(=O)[C@H](CCCCNC(=O)COCCOCCNC(=O)CC[C@H](NC(=O)CCCCCCCCCCCCCCCCC(=O)O)C(=O)O)NC(=O)[C@H](CCCCN)NC(=O)[C@H](CC(=O)O)NC(=O)[C@H](CC(C)C)NC(=O)[C@](C)(CC(C)C)NC(=O)[C@H](CCCN)NC(=O)[C@H](CO)NC(=O)[C@H](Cc1ccccc1)NC(=O)[C@H](CC(=O)O)NC(=O)[C@H](CO)NC(=O)[C@@H](NC(=O)[C@H](Cc1ccccc1)NC(=O)[C@@H](NC(=O)CNC(=O)[C@H](CCC(N)=O)NC(=O)C(C)(C)NC(=O)[C@@H](N)Cc1ccc(O)cc1)[C@@H](C)O)[C@@H](C)O)C(=O)N[C@@H](CCC(=O)O)C(=O)N[C@@H](Cc1c[nH]c2ccccc12)C(=O)N[C@@H](CC(C)C)C(=O)N[C@@H](CC(C)C)C(=O)N[C@@H](CCC(=O)O)C(=O)NCC(=O)NCC(=O)N1CCC[C@H]1C(=O)N[C@@H](CO)C(=O)N[C@@H](CO)C(=O)NCC(=O)N[C@@H](C)C(=O)N1CCC[C@H]1C(=O)N1C[C@H](O)C[C@H]1C(=O)N1CCC[C@H]1C(=O)N[C@@H](CO)C(=O)NCC(=O)N[C@@H](CCC(=O)O)C(N)=O [Example 137]	0.04								
H-Y[Aib]QGTFTSDFS[Orn][αMeL]LDKK([AEEA-γGlu-C18 diacid])AQ[Aib]AFIEYLLE[dA]GPSSGAPPPSGS [Example 212]	0.22								
H-Y[Aib]QGT[αMePhe(2-F)]TSD[4Pal]SILLD[Orn]K([AEEA-γGlu-C18 diacid])AQ[αMe4Pal]EFI[dE][αMeY]LLEGGPSSGAPPPSGS-NH2 (C-terminus assumed) [Example 670]	0.46								
H-Y[Aib]QGTFTSD[4Pal]SQ[αMeL]LD[Orn]K([Glu-γGlu-C18 diacid])AQ[αMe4Pal]AFIEYLIAGGPSSGAPPPSGSEE-NH2 [Example 1033]	0.14								
YXQGTFTSDFSKXLDKKAQXAFIEYLLAGGPSSGAPPPSSG (synthetic construct; SITE 2: note = 2-Aminoisobutyric Acid; SITE 13: note = alpha-methyl-leucine; SITE 17: note = Lysine is chemically modified through conjugation of the epsilon-amino group of the Lysine side chain with (2-[2-(2-Amino-ethoxy)-ethoxy]-acetyl)-(gamma-Glu)-CO-(CH2) 18-CO2H; SITE 20: n) [Example 13]		0.196 nM	29.2 nM	1.78 nM	282 nM	53.3 nM	74.7%	7.19 nM	1670 nM
YXQGTFTSDFSKXLDKKAQXAFIEYLLAGGPSSGAPPPGGS (synthetic construct; SITE 2: note = 2-Aminoisobutyric Acid; SITE 13: note = alpha-methyl-leucine; SITE 17: note = Lysine is chemically modified through conjugation of the epsilon-amino group of the Lysine side chain with (2-[2-(2-Amino-ethoxy)-ethoxy]-acetyl)-(gamma-Glu)-CO-(CH2) 18-CO2H; SITE 20: n) [Example 16]		0.217 nM	35.9 nM	1.54 nM	281 nM	37.8 nM	74.6%	8.84 nM	1660 nM
YXQGTFTSDFSKXLDKKAQXAFIEYLLAGGPSSGAPPPGGE (synthetic construct; SITE 2: note = 2-Aminoisobutyric Acid; SITE 13: note = alpha-methyl-leucine; SITE 17: note = Lysine is chemically modified through conjugation of the epsilon-amino group of the Lysine side chain with (2-[2-(2-Amino-ethoxy)-ethoxy]-acetyl)-(gamma-Glu)-CO-(CH2) 18-CO2H; SITE 20: n) [Example 15]		0.201 nM	36.3 nM	1.77 nM	276 nM	79 nM	74.9%	11.1 nM	1980 nM
YXQGTFTSDFSKXLDKKAQXAFIEYLLAGGPSSGEPPPSEG (Aib, αMeL; acyl on Lys; C-terminal amide; synthetic construct; SITE 2: note = 2-Aminoisobutyric Acid; SITE 13: note = alpha-methyl-leucine; SITE 17: note = Lysine is chemically modified through conjugation of the epsilon-amino group of the Lysine side chain with (2-[2-(2-Amino-ethoxy)-ethoxy]-acetyl)-(gamma-Glu)-CO-(CH2) 16-CO2H; SITE 20: n) [Example 22]		0.246 nM	81 nM	2.94 nM	592 nM	41.9 nM	64.7%	5.42 nM	532 nM
YXQGTFTSDFSKXLDKKAQXQFIEYLLAGGPSSGEPPPSEG (synthetic construct; SITE 2: note = 2-Aminoisobutyric Acid; SITE 13: note = alpha-methyl-leucine; SITE 17: note = Lysine is chemically modified through conjugation of the epsilon-amino group of the Lysine side chain with (2-[2-(2-Amino-ethoxy)-ethoxy]-acetyl)-(gamma-Glu)-CO-(CH2) 16-CO2H; SITE 20: n) [Example 26]		0.2 nM	35.4 nM	3.44 nM	623 nM	96.1 nM	75.6%	4.82 nM	980 nM
YXQGTFTSDFSKXLDKKAQXAFIEWLLAGGPSSGEPPPSGE (synthetic construct; SITE 2: note = 2-Aminoisobutyric Acid; SITE 13: note = alpha-methyl-leucine; SITE 17: note = Lysine is chemically modified through conjugation of the epsilon-amino group of the Lysine side chain with (2-[2-(2-Amino-ethoxy)-ethoxy]-acetyl)-(gamma-Glu)-CO-(CH2) 18-CO2H; SITE 20: n) [Example 21]		0.218 nM	29.1 nM	2.7 nM	324 nM	87.6 nM	72.5%	12.4 nM	1510 nM
YXQGTFTSDFSKXLDKKAQXAFIEYLLAGGPSSGEPPPSGE (synthetic construct; SITE 2: note = 2-Aminoisobutyric Acid; SITE 13: note = alpha-methyl-leucine; SITE 17: note = Lysine is chemically modified through conjugation of the epsilon-amino group of the Lysine side chain with (2-[2-(2-Amino-ethoxy)-ethoxy]-acetyl)-(gamma-Glu)-CO-(CH2) 16-CO2H; SITE 20: n) [Example 23]		0.178 nM	25.5 nM	2.98 nM	308 nM	51.5 nM	67.2%	5.13 nM	573 nM
YXQGTFTSDFSKXLDKKAQXAFIEYLLEGGPSSGAPPPGEG (synthetic construct; SITE 2: note = 2-Aminoisobutyric Acid; SITE 13: note = alpha-methyl-leucine; SITE 17: note = Lysine is chemically modified through conjugation of the epsilon-amino group of the Lysine side chain with (2-[2-(2-Amino-ethoxy)-ethoxy]-acetyl)2-(gamma-Glu)-CO-(CH2 )18-CO2H; SITE 20:) [Example 17]		0.317 nM	91.7 nM	2.96 nM	543 nM	66.2 nM	72.2%	8.33 nM	2040 nM
YXQGTFTSDXSKXLDKKAQXAFIEYLLAGGPSSGEPPPSGE (synthetic construct; SITE 2: note = 2-Aminoisobutyric Acid; SITE 10: note = 3-(4-Pyridyl)-L-alanine; SITE 13: note = alpha-methyl-leucine; SITE 17: note = Lysine is chemically modified through conjugation of the epsilon-amino group of the Lysine side chain with (2-[2-(2-Amino-ethoxy)-ethoxy]-acetyl)) [Example 28]		0.255 nM	63.8 nM	3.68 nM	686 nM	81.8 nM	76.2%	12.6 nM	1550 nM
YXQGTFTSDFSKXLDKKAQXAFIEYLLAGAPSSGAPPPSEG (synthetic construct; SITE 2: note = 2-Aminoisobutyric Acid; SITE 13: note = alpha-methyl-leucine; SITE 17: note = Lysine is chemically modified through conjugation of the epsilon-amino group of the Lysine side chain with (2-[2-(2-Amino-ethoxy)-ethoxy]-acetyl)-(gamma-Glu)-CO-(CH2) 18-CO2H; SITE 20: n) [Example 24]		0.308 nM	102 nM	3.09 nM	447 nM	79.9 nM	71.9%	9.66 nM	1390 nM
YXQGTFTSDFSKXLDKKAQXAFIEYLLEGGPSSGAPPPGGS (synthetic construct; SITE 2: note = 2-Aminoisobutyric Acid; SITE 13: note = alpha-methyl-leucine; SITE 17: note = Lysine is chemically modified through conjugation of the epsilon-amino group of the Lysine side chain with (2-[2-(2-Amino-ethoxy)-ethoxy]-acetyl)-(gamma-Glu)-CO-(CH2) 18-CO2H; SITE 20: n) [Example 18]		0.337 nM	59.6 nM	2.31 nM	561 nM	91.8 nM	74.1%	2.7 nM	1210 nM
Y[Aib]QGTFTSDFSK[αMeL]LDKK([AEEA-γGlu-C20 diacid])AQQAFIEYLLA[Aib]GPSSGEPPPSEG-NH2 [Example 19]		0.228 nM	66.2 nM	3.96 nM	1310 nM	52.4 nM	72.6%	2.35 nM	1010 nM
